For the assay, the target named is human wild-type p53 (full-length, in vitro translated from plasmid pGEMhump53wt) (human, UniProt P04637 1-393). Put plainly: cell-based or functional assay.

Non-standard residues stand in square brackets, D forms with d.

Chain of human wild-type p53 (full-length, in vitro translated from plasmid pGEMhump53wt) (P04637 whole entry): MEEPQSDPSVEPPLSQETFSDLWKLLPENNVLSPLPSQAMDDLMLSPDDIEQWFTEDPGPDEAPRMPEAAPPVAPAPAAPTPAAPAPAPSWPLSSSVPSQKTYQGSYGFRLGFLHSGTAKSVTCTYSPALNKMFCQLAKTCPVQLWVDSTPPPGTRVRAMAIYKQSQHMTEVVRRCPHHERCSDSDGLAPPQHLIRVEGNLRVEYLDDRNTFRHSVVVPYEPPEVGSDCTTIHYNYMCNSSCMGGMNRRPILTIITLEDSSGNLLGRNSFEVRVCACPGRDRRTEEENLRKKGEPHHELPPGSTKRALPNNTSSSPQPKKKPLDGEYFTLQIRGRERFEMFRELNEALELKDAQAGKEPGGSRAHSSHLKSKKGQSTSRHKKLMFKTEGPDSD

B1: cyclic peptide c[SRHKKa] (peptide)
peptide: cyclo(SRHKK[dA])
SMILES: C[C@H]1NC(=O)[C@H](CCCCN)NC(=O)[C@H](CCCCN)NC(=O)[C@H](Cc2c[nH]cn2)NC(=O)[C@H](CCCNC(=N)N)NC(=O)[C@H](CO)NC1=O
As to B1, the “activation of p53 DNA binding (gel shift), relative to 0.05 mM peptide p53p363-373” value was roughly 2 times.

The record behind these values is patent US20030171537A1 (Bayer, published 2003).
